Experimental data: the supplement of paper PMC6757056
± gives the standard deviation of the averaged measurements.

B1: library; a variant is named by its letters at N, in order (parent)
chain: GCUGUCACCGGUGUAUUACCCUAGUGGUCGACCGGUCUGAUGAGUCUNNNNNNAGACGAAACAGC

Experiments:
hypoxanthine [1] = variants of: B1; assay: normalized RNA/DNA level with ligand (relative to sTRSVctl = 100) (log10 (% of sTRSVctl)); ligand: hypoxanthine (xanthine aptamer); higher = less ribozyme self-cleavage, higher mRNA level; settings: ligand concentration (+) RNA-Seq: 5 mM, HEK293T, reporter: mCherry (pCS4076), ligand present: yes
Procedure, shortened: (§1)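 Library plasmids encoding reporter-linked ribozyme switches (mCherry, or eGFP for some folinic acid experiments) were transfected into HEK293T at 4 µg per 6-well well. Ligand, when used, was added 1 h before transfection. Total RNA was extracted with EDTA 72 h later, then reverse-transcribed, amplified, barcoded and sequenced. RNA level was RNA reads over DNA reads, divided by a spiked-in non-cleaving control (or the top 25 sequences), ×100, log10; only sequences with ≥100 DNA reads were kept.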

hypoxanthine [2] = variants of: B1; assay: normalized RNA/DNA level without ligand (relative to sTRSVctl = 100) (log10 (% of sTRSVctl)); ligand: hypoxanthine (xanthine aptamer); higher = less ribozyme self-cleavage, higher mRNA level; settings: HEK293T, reporter: mCherry (pCS4076), ligand present: no
Procedure, shortened: as §1

Row | Variant | normalized RNA/DNA level with ligand (log10) (hypoxanthine [1]) | normalized RNA/DNA level without ligand (log10) (hypoxanthine [2])
1 | AUAUAU | 1.9 ± 0.028 | 1.79 ± 0.045
2 | UGGUAC | 1.98 ± 0.088 | 1.85 ± 0.041
3 | UGGUAG | 1.88 ± 0.028 | 1.55 ± 0.011
4 | CUUUGC | 1.92 ± 0.026 | 1.88 ± 0.06
5 | UUGUCU | 1.99 ± 0.03 | 2.02 ± 0.083
6 | UUGUCC | 1.99 ± 0.03 | 2.03 ± 0.067
7 | ACUUAU | 1.9 ± 0.029 | 1.729 ± 0.014
8 | UAAAGA | 1.891 ± 0.0053 | 1.57 ± 0.021
9 | CAGGGC | 1.99 ± 0.056 | 1.84 ± 0.052
10 | UAUUCC | 1.95 ± 0.023 | 1.852 ± 0.012
11 | CGUAGG | 1.808 ± 0.0097 | 1.334 ± 0.0095
12 | CGUCCC | 1.97 ± 0.051 | 1.98 ± 0.064
13 | CGUUAG | 1.944 ± 0.01 | 1.77 ± 0.17
14 | UUAGUU | 1.952 ± 0.0013 | 1.85 ± 0.038
15 | CGGGUG | 1.893 ± 0.013 | 1.7 ± 0.05
16 | UUUACA | 1.97 ± 0.04 | 1.912 ± 0.011
17 | CUUACU | 1.96 ± 0.028 | 1.856 ± 0.0075
18 | CUGUUC | 1.97 ± 0.021 | 1.861 ± 0.0058
19 | UACUUG | 1.929 ± 0.0075 | 1.72 ± 0.064
20 | CGGCGG | 1.889 ± 0.0076 | 1.48 ± 0.11

Row | Variant | normalized RNA/DNA level with ligand (log10) (hypoxanthine [1]) | normalized RNA/DNA level without ligand (log10) (hypoxanthine [2])
21 | CCGAGC | 1.899 ± 0.0048 | 1.44 ± 0.037
22 | AGAUCG | 1.89 ± 0.031 | 1.55 ± 0.048
23 | UACCUU | 1.927 ± 0.017 | 1.89 ± 0.054
24 | CGUCUC | 2 ± 0.023 | 2.03 ± 0.017
25 | ACCAUG | 1.91 ± 0.02 | 1.571 ± 0.013
26 | AGAGCC | 1.955 ± 0.018 | 1.823 ± 0.017
27 | UGGGUG | 1.972 ± 0.0063 | 1.727 ± 0.016
28 | GGUCAU | 1.94 ± 0.037 | 1.89 ± 0.041
29 | GCUAUC | 1.966 ± 0.016 | 1.84 ± 0.058
30 | ACGUUA | 1.867 ± 0.015 | 1.62 ± 0.095
31 | UAACCA | 1.941 ± 0.018 | 1.89 ± 0.042
32 | UAGUUA | 1.942 ± 0.013 | 1.861 ± 0.0033
33 | CACACA | 1.9 ± 0.036 | 1.78 ± 0.037
34 | GCCUUU | 1.94 ± 0.041 | 1.92 ± 0.039
35 | GCUUGC | 1.96 ± 0.033 | 1.87 ± 0.048
36 | GCUUGU | 1.93 ± 0.0067 | 1.72 ± 0.023
37 | GUCGCU | 2.04 ± 0.038 | 1.904 ± 0.011
38 | GAGAGU | 1.87 ± 0.091 | 1.49 ± 0.029
39 | UUGGUA | 1.937 ± 0.0068 | 1.885 ± 0.0069
40 | CAAAGA | 1.93 ± 0.03 | 1.768 ± 0.0019

Row | Variant | normalized RNA/DNA level with ligand (log10) (hypoxanthine [1]) | normalized RNA/DNA level without ligand (log10) (hypoxanthine [2])
41 | GAAGAU | 1.94 ± 0.035 | 1.8 ± 0.075
42 | CAGUCA | 1.93 ± 0.025 | 1.6768 ± 0.0013
43 | CCGGAU | 1.9742 ± 0.0018 | 1.777 ± 0.012
44 | CUCUAG | 1.9 ± 0.0079 | 1.78 ± 0.011
45 | AGAGUG | 1.82 ± 0.047 | 1.331 ± 0.0048
46 | AAGGAC | 1.905 ± 0.017 | 1.648 ± 0.012
47 | CCCAGG | 1.934 ± 0.018 | 1.83 ± 0.019
48 | CUGUCC | 2.01 ± 0.024 | 1.92 ± 0.053
49 | CUACAU | 1.95 ± 0.075 | 1.7979 ± 0.00079
50 | GCUCCU | 2.027 ± 0.006 | 1.981 ± 0.015
51 | CCGAAC | 1.9 ± 0.019 | 1.606 ± 0.0099
52 | AAAUAC | 1.89 ± 0.026 | 1.77 ± 0.048
53 | CUCGCG | 1.983 ± 0.0024 | 1.9 ± 0.084
54 | CGCCUA | 1.98 ± 0.092 | 1.848 ± 0.014
55 | CGAACA | 1.94 ± 0.011 | 1.76 ± 0.015
56 | AGACGC | 1.923 ± 0.0088 | 1.69 ± 0.044
57 | ACGCCA | 1.95 ± 0.045 | 1.81 ± 0.019
58 | AGUGCU | 1.998 ± 0.013 | 1.85 ± 0.023
